± gives the uncertainty stated by the source.
Experiment: protein stability index of a GFP-peptide fusion (yeast GPS) (PSI 1-4); higher = more stable; sorted into four equal gates, so the index is relative within each strain
Procedure, shortened: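 The protein stability index combines read frequencies across sorting gates, each weighted by its gate number and then summed. To obtain those frequencies, a pooled yeast library of GFP fusions to tiled 17-residue yeast protein peptides, on a plasmid also expressing Cherry, was grown to mid-log phase in leucine-free medium. The cells were sorted into four equal gates by GFP/Cherry ratio before plasmid amplification by PCR and Illumina sequencing.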

Sequence	protein stability index (doa10∆)	protein stability index (pdr5∆)	protein stability index (san1∆)	protein stability index (ubr1∆)
DCQFWETWLGSQCRLHE [PRE2]	2.22 ± 0.096	2.1 ± 0.14	2.59 ± 0.11	2.6 ± 0.09
IQRTLMELLTQMDGFDN [RPT4]	2.84 ± 0.12	3.22 ± 0.079	3.28 ± 0.15	3.23 ± 0.1
DRTMLAPMDFAIVVGWR [FAS1]	2.49 ± 0.075	2.43 ± 0.062	2.68 ± 0.062	1.77 ± 0.041
LENQKDLVIVDENELKK [MTW1]	3.65 ± 0.23			
IRQDVNLGRAVFWEIQS [PRP8]	3.04 ± 0.069	2.86 ± 0.053	2.64 ± 0.06	2.86 ± 0.04
EENSSSNGNNLPLNKPR [RGR1]	3.24 ± 0.044	3.29 ± 0.044	3.2 ± 0.041	3.26 ± 0.045
VTFIFGELKRGNESVKP [MED11]	3.43 ± 0.17	3.12 ± 0.077	2.97 ± 0.1	2.98 ± 0.15
STEYMMQFAKSKTVKVL [RPN6]	1.1 ± 0.064	1.2 ± 0.073	1.2 ± 0.2	1.07 ± 0.094
LKTEAANVLDPSLRKLI [BRR2]	2.44 ± 0.052	2.61 ± 0.059	2.9 ± 0.064	2.68 ± 0.039
NVYRVTVHKTFEGNVAT [PRP8]		3.16 ± 0.23	3.23 ± 0.22	3.33 ± 0.15
RISGLIYEEVRAVLKSF [HHF1]	3.33 ± 0.14	3.13 ± 0.2	3.16 ± 0.11	
DLFTHLWNQWLKLNTSL [SRP68]	1.76 ± 0.048	2.05 ± 0.047	2.27 ± 0.066	1.83 ± 0.038
ILCGIQEYLNPVIDTQI [YDL116W/NUP84]		2.12 ± 0.2	2.01 ± 0.17	
TGGGLFGSKPTGATSLF [YGL172W/NUP49]	3.45 ± 0.11	3.57 ± 0.1	3.56 ± 0.045	3.62 ± 0.074
PSQGMVVEISNGNTSSK [FAS1]	3.08 ± 0.057	3.27 ± 0.051	3.2 ± 0.048	3.29 ± 0.056
KFKKEKFDIIIVDTSGR [SRP54]	2.84 ± 0.046	3.01 ± 0.036	2.95 ± 0.034	3.1 ± 0.04
AHVFVGTCNGDITTSIM [RPN1]	2.72 ± 0.048	2.78 ± 0.044	2.63 ± 0.047	2.62 ± 0.053
KDAEYLRNYLTPNVREE [PUP1]	3.09 ± 0.057	3.01 ± 0.075	3.14 ± 0.056	3.16 ± 0.081
IFGGAGGVPTTSFGQPQ [YOR098C/NUP1]	1.57 ± 0.061	1.58 ± 0.074	1.55 ± 0.11	1.4 ± 0.053
SNLQRAQNVPMNIIQQQ [GAL11]	2.47 ± 0.052	2.55 ± 0.047	2.34 ± 0.078	2.34 ± 0.031
AKHAVSEGTRAVTKYSS [HTB1]	3 ± 0.08	3.21 ± 0.11	3.41 ± 0.075	3.12 ± 0.09
QVGDGLEILIVTKDGVR [PRE7]	2.64 ± 0.054	2.6 ± 0.049	2.92 ± 0.053	2.76 ± 0.052
PIAQPATDVEARAVQDN [RPL13A]	3.02 ± 0.15	3.17 ± 0.11	3.1 ± 0.14	1.69 ± 0.2
PWGDYLQLETPAEVGRA [BRR2]	1.25 ± 0.062	1.8 ± 0.09	1.47 ± 0.088	1.19 ± 0.049
RRFNSSIGRTAQGKEFG [RPL17A]	3.03 ± 0.078	2.96 ± 0.089	2.95 ± 0.098	2.89 ± 0.07
AAKKAMYTLSAQDEVFS [ASC1]	2.78 ± 0.071	2.6 ± 0.063	2.23 ± 0.091	2.83 ± 0.06

Sequence	protein stability index (doa10∆)	protein stability index (pdr5∆)	protein stability index (san1∆)	protein stability index (ubr1∆)
YISKIGEKIDSNKPIFL [SWI1]	3.02 ± 0.084	2.86 ± 0.06	3.01 ± 0.07	3.19 ± 0.09
LQHLRSRCHLVTKDTKK [SRP68]	2.93 ± 0.11	2.88 ± 0.11	2.93 ± 0.12	3.12 ± 0.056
LNKEKLGPLFKKIVDDT [IRR1]	2.94 ± 0.099	3.12 ± 0.12	3.22 ± 0.23	2.94 ± 0.076
ISLVDDIINAVNEIMYK [MTW1]	2.9 ± 0.073	2.91 ± 0.081	2.83 ± 0.053	3.1 ± 0.095
CWPKDSRMRLIRQDVNL [PRP8]	2.52 ± 0.081	2.68 ± 0.09	2.72 ± 0.067	2.76 ± 0.12
KIPILAQHESFLRQKIC [RPN9]	1.72 ± 0.046	2.06 ± 0.055	1.85 ± 0.076	2.14 ± 0.038
KKQKLIEEQDKKVQALQ [ITC1]	3.06 ± 0.094	2.6 ± 0.079	2.61 ± 0.087	2.82 ± 0.068
PFDNSTEEKCKNFIESE [YJL039C/NUP192]	3.27 ± 0.14	3.39 ± 0.16	3.22 ± 0.096	3.32 ± 0.1
LQQKQQQRFQALQQQQQ [SWI1]	1.35 ± 0.057	1.53 ± 0.047	1.37 ± 0.083	1.56 ± 0.063
SLQNNLQNNINNSNNNN [SNF11]	3.19 ± 0.078	3.27 ± 0.099	3.31 ± 0.066	3.29 ± 0.062
SQPTNSTTTSLHVPNLQ [SMC4]	1.99 ± 0.043	2.4 ± 0.035	2.21 ± 0.052	2.03 ± 0.027
LEVGRRFSPDEDFEHNN [MCD1]	3.26 ± 0.15	3.45 ± 0.18	3.22 ± 0.16	3.45 ± 0.18
VEDALDKDSTKEVASLP [FAS2]	3.15 ± 0.13		3.12 ± 0.12	
NPEEVEQVAEEAAAAEE [RPS0B]	3.07 ± 0.092	3.03 ± 0.11	2.95 ± 0.12	3.26 ± 0.071
YISFIKDDRFVPVRKFK [RPN2]	2.41 ± 0.048	2.82 ± 0.039	2.96 ± 0.041	2.85 ± 0.031
VDAYRRLENKLSEIESL [SRP68]	1.4 ± 0.078	1.48 ± 0.073	1.57 ± 0.11	1.68 ± 0.062
NMGMNNMNNGGKELDSL [PGD1]	3.54 ± 0.28	3.64 ± 0.24	3.24 ± 0.11	3.24 ± 0.082
SWNESEDTLSGYDPIVS [PRP28]	3.04 ± 0.12	3.14 ± 0.12	3.19 ± 0.076	3.44 ± 0.06
KHGAVHLSTYLKVYKVG [RPL21A]	1.76 ± 0.07	1.69 ± 0.077	1.27 ± 0.2	3.02 ± 0.065
RNMAEEFEYDDEPDEQG [CYT1]	3.12 ± 0.073	3.17 ± 0.061	3.17 ± 0.064	3.09 ± 0.059
DGIHYILNHIGQLTGIY [PRP8]	1.67 ± 0.065	1.55 ± 0.073	1.14 ± 0.12	1.67 ± 0.078
DQKIWPYLEKYPEYDQI [SSN3]	3.5 ± 0.12	3.08 ± 0.09	3.11 ± 0.065	3.43 ± 0.1
LTKKYSFKIFVDVLVIS [RRP42]	1.22 ± 0.049	1.25 ± 0.051	1.41 ± 0.071	1.44 ± 0.039
ESKFILEALRQNYRLDG [RRP45]			2.95 ± 0.28	
MSEEQDPLLAGLGETSG [RPT4]	2.91 ± 0.24	3.55 ± 0.17	3.57 ± 0.17	3.25 ± 0.15
WNLNATKPNVLNDPSLK [SIN4]	3 ± 0.088	2.94 ± 0.071	3 ± 0.054	3.26 ± 0.04

Sequence	protein stability index (doa10∆)	protein stability index (pdr5∆)	protein stability index (san1∆)	protein stability index (ubr1∆)
NYIYAGYENGMLAQWDL [RPN14]	2.92 ± 0.13	3.07 ± 0.14	3.06 ± 0.1	3.14 ± 0.078
KNPKFSNAFYSVLRDTL [SMC4]	2.1 ± 0.084	2.34 ± 0.11	2.13 ± 0.093	2.13 ± 0.11
AFDLDGTGKSQSGSNSG [ROX3]	3.44 ± 0.25	2.71 ± 0.2		3.42 ± 0.23
ASYSKYLIDHIKVDGAV [RPL22B]	2.92 ± 0.09	2.65 ± 0.11	2.62 ± 0.053	2.83 ± 0.063
QIRSADEPMTTFYKCVN [RPC11]	2.26 ± 0.2	2.54 ± 0.078	2.2 ± 0.14	2.77 ± 0.085
GQKNEVRILRLITTNSV [SNF2]	2.21 ± 0.052	1.95 ± 0.052	2.14 ± 0.058	2.08 ± 0.049
FSFSKSEEERKSSPISN [YOR098C/NUP1]	2.48 ± 0.11	2.23 ± 0.071	2.41 ± 0.091	2.94 ± 0.084
PSLEKSSFTFGSTTIEK [YLR335W/NUP2]	2.17 ± 0.058	2.65 ± 0.086	1.66 ± 0.15	2.01 ± 0.056
EQQVKEAEMAYVKAVSD [SMC4]	3.21 ± 0.082	2.89 ± 0.093	2.83 ± 0.08	2.83 ± 0.069
GNDNLIKAPTVAADGKL [YLR335W/NUP2]	2.46 ± 0.097	2.93 ± 0.09	2.56 ± 0.077	2.95 ± 0.072
LMRQGVLGIKVKIMRDP [RPS3]	2.4 ± 0.085	2.33 ± 0.074	2.25 ± 0.083	2.74 ± 0.051
QPDANKKKRSRTSATRE [ISW2]	3.46 ± 0.14	3.38 ± 0.079	3.5 ± 0.057	3.16 ± 0.1
ETHSKKRKKEANEEPNT [ITC1]	2.69 ± 0.096	2.6 ± 0.072	3.13 ± 0.058	2.17 ± 0.058
EPAIEEENGDSIKEHST [MED1]	3.32 ± 0.19		3.23 ± 0.14	3.56 ± 0.14
YEDEELSRAEYDSDSDS [LIN1]	3.19 ± 0.1	3.33 ± 0.087	3.08 ± 0.057	3.23 ± 0.055
SFYRVEKIKKINYHQYI [SSN2]	1.18 ± 0.081	1.36 ± 0.06	1.39 ± 0.2	1.62 ± 0.1
ITRSVMRFNIEIIADWI [BRR2]	3.04 ± 0.071	2.7 ± 0.078	2.57 ± 0.097	3.16 ± 0.065
KPQEIKDILVKTGITKK [PRE9]	3.39 ± 0.089	3.29 ± 0.086	2.56 ± 0.22	3.15 ± 0.14
PEESKGSFKYITARSAF [SWP82]	2.85 ± 0.068	3.04 ± 0.076	3.1 ± 0.053	3.15 ± 0.06
TRKSLNNAVRFSKQCLI [ECM29]	2.15 ± 0.06	2.96 ± 0.061	2.42 ± 0.06	2.56 ± 0.05
VTVDADIDDILKKGEQK [ISW2]	2.85 ± 0.12	2.76 ± 0.07	2.35 ± 0.084	2.72 ± 0.043
DDLADDDFEEDEDEEDD [RPC31]		3.31 ± 0.12	3.21 ± 0.09	3.46 ± 0.29
TRFKAVVVVGDSNGHVG [RPS2]	1.87 ± 0.05	1.96 ± 0.064	1.84 ± 0.11	1.99 ± 0.043
GHRMKNAQSKLSLTLNT [SNF2]	1.94 ± 0.056	1.73 ± 0.04	1.79 ± 0.065	2.24 ± 0.041
